The DeepSol protein solubility set

assay: soluble on expression in E. coli; label from the status in PepcDB or PDB records

| Sequence | soluble on expression in E. coli |
| --- | --- |
| MPPKKTQKSGLLQFFAKQQQEKYQNSSKNEETTEHDDSCQILFEKQVAGPSKVSKPIGFPTTPKNTTKWAETLQKSSEKAGRDWLNPFPIRVSSAKKEIEKNSKTELLAKGFDDIHGNGIFYPINEPIRNFELNLLKCLSSSNCCVALPSSSPSTPGRICAMTVFNFLKWFPRCRVLLVSSSDSWISSLRQLGLESQTTKLTTVTQFKNLKTEAGKILVCTTPQCALKVVESTGGREFLEEIRLVLMELKPNECCSKYKPILNALTVKETFFRCSVLTTSTSNASRRTASITKRQQMITNLQLSDWIEQTEADFAFRSANIPAGVEVKTWKSEDNSAKHAEITGKFEKYCEKTIDDLARQCIVSSKSVKKLIWTCWKTLKQQSKLPEIEKKKLEISEFLTCTYKLLIIDGVVAARNFVKKHSEIPHIKEHAEKILEPTIFGGFSEFPAKFQQLSDSIEAFLKMDNHVLGVILCRDSDQAIEIQNYLELQLTTRCTCVRIIEEGTHPGRNLWNIQRISTVFIDRKSPKIVILPVKIRDFIGFSDGLPLSELTFIASISRDSLFNFRRFGGAHLLIINDPLEKLRNEDGRLLVDDGKFVQNNSKNAPKMGAVERYDFKFEPSRLRIDATHLPIQFFYPRDVGVTFDETAGISQLGKTHIEMTSKEHTELFKRLQNPDFSRFQRRKRVFWVLEDLEHPNENKSIPIEEMDETQLCWNQDIQYLGEIKSSKLSERLTRYMKDEPVEWIINEKRRFEYINEITSTDRLVHLDRLLRNLDAHFQVLSSC | not soluble |
| MQYHYQWLTPFDAKRTTVVCLHGFTGTLATFAAVFPSQTPYNVLGIDLPGHGATASLVAPERYTMKQVCHDIAELTESLNLPCFCLLGYSMGARTALGFALHYPQKVQHLLLESGSPGLATAAERQARICQDHRLAERLLEEPLVDFIDFWQELPLFQTQKALSVAQQMAIRQERLSQSAFGLVSSLWYMGTGAQESYWERLAELQPIPTDLLVGGEDQKFIGIAKKMQARQPLLRLTIFPEAGHCIHLEQPTIFYEKVTALLEGAI | not soluble |
| MGSDKIHHHHHHMGTVPTPAGLAFFQQVQLALRHLDHAVDSAHSSRLSGHVTVGFSPSVAAVIGTHFLKLMRNRYPDIKVRLIEGLSGDLKALVNARQLDVAIIFSDDVDPQWAIQPLVKEQMFLISPKEVLNQYHLESCIDNQTITHSQLKELPLILPSQRHGLRLLLEQKIHQLKVAYEIDGLHLLMESISQLEMATIQPAGASLNSRQDLCLLRVVEPAIERINYLISLSEEELSPATLATKVVIRACVANLINEKRWPGAELINT | not soluble |
| MGSDKIHHHHHHLRTNTPTFINIRNSYKIKTIMHFHLSGNAASDLKIVRFEDFSGSADAFRQHWYVHRVTMQRRKHVIVMEESTRYALLFCRVTQPFFKNFPEFFADTLWRHIVSLCAVPTARFGSIQAMTTDMCSENIYHKGLNRSVQAHIRDSFLTLECYLLHEPPINLARQEDVFQMNIRINETPRTRYGEKNYIWSLREFQRLWCEHLGVAAVRG | not soluble |
| MGSDKIHHHHHHMKGAAFVKKEGLKQKALEIGRVPTHLKLEIEDYGGDDKRAHFCWADPQDENTGIIVELGPDGELESLSRDIEPESGERLSEEKLEDIMRQFVETHHPGALSAFVREENDRAYGDKVRFSYVQMEAGLPLPMSGFMADVSLSGEIVYFRYYGEAGSIIKPKRVADVEEALAFIKKDVEFDLLFEVLHRSVYKNGDDQPHLVYEPEGRAITVPADLVQEEQAVDDDDDYREPESFPLPLFEGIREKADPDSMIGIENGFVKEREADLGDGRIGIVWRNPDDPVYQPADKSMDSWFKGRTHQVLKTIYNKETGKLEGVMSFMEKKGPLTVTLAECEKIALRFLFALFPNADQYFRIRYDEKDEEENAVAGFTFEAHCHGVPLRFGQIRICVSRQTGYITVYMGPDIDPNKLATIDPVPAISVEQAKSIFWQHFKVELGWEREYGDDEEHSYRLVYKPVYPHFIDAHTGEPVFSIW | not soluble |
| MAGLTRALVARHALGRAEAYDAALLDVAQDHLLYLLSQTVQFGDNRLVFKGGTSLRKCRLGNVGRFSTDLDFSAPDDEVVLEVCELIDGARVGGFEFGVQSTRGDGRHWQLRVRHTELGEPRIVASVEFARRPLALPSELLAFIQLPIHKAYGFGLPTLPVVAEAEACAEKLARYRRVALARDLYDLNHFASRTIDEPLVRRLWVLKVWGDVVDDRRGTRPLRVEDVLAARSEHDFQPDSIGVLTRPVAMAAWEARVRKRFAFLTDLDADEQRWAACDERHRREVENALAVLRS | soluble |
